The target in test [1] is T1, mouse CD276 protein (mouse, UniProt Q8VE98 29-316).
T1 construct: whole, on cells; also called mCD276; CHO-S-mCD276
T1 sequence (looked up): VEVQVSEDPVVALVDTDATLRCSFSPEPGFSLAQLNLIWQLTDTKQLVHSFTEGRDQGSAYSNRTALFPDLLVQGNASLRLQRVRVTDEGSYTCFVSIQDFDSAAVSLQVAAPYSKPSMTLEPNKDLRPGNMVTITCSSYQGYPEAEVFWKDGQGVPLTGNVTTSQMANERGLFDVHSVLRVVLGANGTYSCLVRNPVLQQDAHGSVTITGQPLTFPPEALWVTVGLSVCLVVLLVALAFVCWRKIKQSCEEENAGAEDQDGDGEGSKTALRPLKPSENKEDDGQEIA
In words: FACS on CHO-S-mCD276 cells. Here is the method: (§1) Screening & Expansion—The subcloning plates were screened by protein or cell-based Elisa, and the subclones with good binding ability were expanded to 24-wells for confirmation tests. The specificity and cross-reactivity of these subclones were confirmed with FACS analysis. Briefly, parental CHO-S cells, CHO-S-hCD276, CHO-S cell line stably over-expressing Macaca fascicularis CD276, CHO-K1 S, cell line stably over-expressing mouse CD276 were incubated with antibodies produced by each subclone respectively. Fluorescent dye-conjugated secondary antibody was used to detect the binding of the primary antibody with the cells. Median fluorescence intensity was measured by FACS analysis.

Test [2] deals with T2, human CD276 protein (human, UniProt Q5ZPR3 29-534).
T2 construct: whole, on cells; for SKOV3 and the other cancer lines the protein is the cells' own; also called B7-H3; B7H3
T2 sequence (looked up): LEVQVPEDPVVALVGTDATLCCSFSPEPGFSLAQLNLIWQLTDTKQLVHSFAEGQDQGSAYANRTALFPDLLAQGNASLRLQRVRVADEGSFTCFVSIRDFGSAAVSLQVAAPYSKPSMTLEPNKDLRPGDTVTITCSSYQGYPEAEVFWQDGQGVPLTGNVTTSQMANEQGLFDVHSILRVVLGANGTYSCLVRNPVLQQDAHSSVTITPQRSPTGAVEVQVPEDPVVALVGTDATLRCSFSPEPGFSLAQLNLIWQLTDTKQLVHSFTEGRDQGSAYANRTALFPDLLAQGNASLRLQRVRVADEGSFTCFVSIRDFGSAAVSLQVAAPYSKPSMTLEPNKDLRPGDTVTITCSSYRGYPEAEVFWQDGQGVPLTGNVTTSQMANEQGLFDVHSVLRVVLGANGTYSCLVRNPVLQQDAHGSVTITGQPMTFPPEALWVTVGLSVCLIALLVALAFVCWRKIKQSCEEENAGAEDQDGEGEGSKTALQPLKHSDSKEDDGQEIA
In words: FACS on CHO-S-hCD276 cells. Here is the method:
as §1

The target in test [3] is T3, Macaca fascicularis CD276 (Macaca fascicularis).
T3 construct: whole, on cells; also called cynomolgus monkey CD276; cynoCD276
As to the kind of experiment: FACS on CHO-S-cynoCD276 cells. Here is the method:
as §1

B1: 7-E1-F8-F6 (antibody, V domains shown)
VH: QVQLQQSGPELVKPGASVQMSCKASGYTFTDYVISWVNQRTGQGLEWIGEIYPRSGNTYYNEKFKGKATLTADKSSNTAYMQLSSLTSEDSAVYFCARFDIAYSFDYWGQGTTLTVSS
VL: DVVMTQTPLSLPVSLGDQASISCRSTQSLVHSNGVTYLHWYLQKPGQSPKLLIYKVSNRFSGVPDRFSGSGSGTDFTLKISRVEAEDLGVYFCSQGTHVPWTFGGGTKLEIK
notes: mouse monoclonal antibody (hybridoma)
For the molecule B1, the entries for the “FACS MFI” value in test [1], in test [2] and in test [3] were 1310, 6990 and 5590, respectively.

B2: 3-G7-D8-D3 (antibody, V domains shown)
VH: QVQLQQSGAELARPGTSVKLSCKASGYTFTTYWIQWVKQRPGQGLEWIGAIYPGDGDTRYTQKFKGKATLTADKSSSTAYMQLSTLASEDSAVYYCARPYDGYYIDYPMDSWGQGTSVTVSS
VL: QIVLTQSPAIMSASPGEKVTMTCSASSRINYMHWYQQKPGTSPIIWIYDTSKLASGVPARFSGSGSGTSYSLTISSMEAEDAATYYCHQRSSYPFTFGSGTKLEIK
notes: as for B1
B2: the “FACS MFI” value in test [1] is 1290; in test [2], 82400; in test [3], 6420.

B3: 14-E7-G9-D4 (antibody, V domains shown)
VH: EVQLQQSGPELVKPGASVKMSCKASGYTFTNYIMHWVKQKPGQGLEWIGYINPYNDGIKYNEKFKGKATLTSDKSSSTAYMELSSLTSEDSAVYYCTRWGNYVFYYTMDYWGQGTSVTVSS
VL: QIVLSQSPAILSASPGEKVTMTCRASSSVSYMHWYQQKPGSSPKPWIYATSNLASGVPARFSGSGSGTSYSLTISRMEAEDAATYYCQQWSGNPPLTFGAGTKLELK
notes: as for B1
Turning to B3, the “FACS MFI” value stood at 1300 in test [1], 78100 in test [2] and 61800 in test [3].

B4: 4-D5-B9-B11 (antibody, V domains shown)
VH: EIGGLVKPGGSLKFSCAASGFTFSSYAMSWVRQTPEKRLEWVATISGGGIYYPDSVKGRFTISRDNAKNTLYLQMSSLRSEDTAMYYCARQGSKGWDAMDYWGQGTSVTVSS
VL: QIVLTQSPAIMSASPGEKVTMTCRASSSVSFMHWYQQKSGTSPKRWIYETSKLASGVPDRFSGSGSGTSYSLTISSMEAEDAATYYCQQWSSNPLTFGAGTKLELK
notes: as for B1
For B4, the “FACS MFI” value in test [1] came to 2100; in test [2], 145000; in test [3], 148000.

B5: 3-C2-C3-E7 (antibody, V domains shown)
VH: EVQLQQSGPELVKPGASVKISCKTSGYTFTENTMHWVKQSHGKRLEWIGGINPNTGGTTYNQKFKGKATLTVDKSSSTAYMELRSLTSEDSAVYYCARRGTNWEHWYFDVWGAGTTVTVSS
VL: QIVLTQSPAIMSASPGEKVTMTCSASSSVSYMHWYQQKSGTSPKRWIYDTSKLASGVPARFSGSGSGTSYSLTISSMEAEDAATYYCQQWSSNPLTFGAGTKLELK
notes: as for B1
On to B5, for which the “FACS MFI” value in test [1] turned out to be 2770; in test [2] it was 38800; in test [3], 2110.

B6: 6-H11-G5-D8 (antibody, V domains shown)
VH: EVQLQESGPELVKPGTSVKLSCKASGYTFTSYDINWVRQRPEQGLEWIGWIFPGNGDTYYNEKFKGKATLTSDKSSSTAYMQLSRLTSEDSAVYFCARDLRLGTFDYWGQGTTLTVSS
VL: QIVLTQSPEIMSASPGEKVTMTCSASSSVSYIHWYQQKSGTSPKRWIYDTSKLASGVPARFSGSGSGTSYSLTIRSMEAEDAATYYCQQGSSNPRTFGGGTKLELK
notes: as for B1
Consider B6, for which the “FACS MFI” value in test [1] was found to be 1360; in test [2], 113000; in test [3], 30400.

B7: 27-F8-E10-E11 (antibody, V domains shown)
VH: EVQLQQSGPELVKPGASVKISCKTSGYTFTEYAMHWVKQSHGKILEWIGGINPNIGGTTYNQKFKDKATLTVDKSSSTASMELRSLTSEDSAVYYCARFLVPSTEGFTYWGQGTLVTVSA
VL: QIVLTQSPAIMSASPGEKVTMTCSASSSVSYMHWYQQKSGTSPKRWIYDTSRVASGVPARFSGSGSGTSYSLTISSMEAEDAATYYCQQWSSNPLTFGAGTKLELK
notes: as for B1
As to B7, the figures for the “FACS MFI” value in test [1], in test [2] and in test [3] were 1350, 16000 and 80500, respectively.

B8: 25-D3-G4-C6 (antibody, V domains shown)
VH: EIQLQQTGPELVKPGASVKISCKASGYSFTDYIILWVKQSHGMSLEWIGNINPYYNSTYYNLKFKGKATLTVDKSSSTAYMQLDSLTSEDSAVYYCARDSFDWYFGVWGAGTTVTVSS
VL: DVVMTQTPLSLPVSLGDQASISCRSSQSLVHSNGNTYLHWYLQKPGQSPKLLIYKVSNRFSGVPDRFSGSGSGTDFTLKISRVETEDLGIYFCSQSTHVPPLTFGAGTKLELK
notes: as for B1
With B8, the results for the “FACS MFI” value in test [1], in test [2] and in test [3] were 1370, 5940 and 5390, respectively.

B9: 28-G2-E6-B10 (antibody, V domains shown)
VH: QVQLQQPGAELVKPGASVKLSCKASGYTFTSYWMHWVKQRPGQGLEWIGMIHPNSDTTDYNEKFKTKATLTVDKSSSTAYMQLSSLTSEDSAVFYCARGGLGPHYFVYWGQGTTLTVSS
VL: QAVVTQESALTTSPGGTVILTCRSSTGAVTTSNYASWVQEKPDHLFTGLIGGTSNRAPGVPVRFSGSLIGDKAALTITGAQTEDDAMYFCALWYSPHYVFGGGTKVTVL
notes: as for B1
B9: the “FACS MFI” value turned out to be 2080 in test [1], 56300 in test [2] and 40800 in test [3].

B10: 27-E7-D8-C7 (antibody, V domains shown)
VH: EVQLQESGPELVRPGVSVKISCKGSGYTFTDYAMHWVKQSHAKSLEWIGVINTYSDNTNYNRKFKGKATMTVDKSSSTAYMELARLTSEDSAIYYCARGLLLRSQLGVYFDYWGQGTTLTVSS
VL: QIVLSQSPAILSASPGEKVTMTCRASSSVSYMHWYQQKPGSSPKPWIYATSNLASGVPARFSGSGSGTSYSLTISRVEAEDAATYYCQQWSSNPWTFGGGTKLEIK
notes: as for B1
Consider B10, for which the entries for the “FACS MFI” value in test [1], in test [2] and in test [3] were 1590, 94700 and 87900, respectively.

B11: 9-G2-H6-E4 (antibody, V domains shown)
VH: EVQLQQSGPDLVKPGASVKISCKASGYSFTGYFMNWVKQRHGKSLEWIGYINPNNGDTIYNQKFKGKATLTVDKSSSTAHMELLSLTSEDSAVYYCGRGGLPFGALDYWGQGTSVTVSS
VL: DIVMSQSPSSLAVSVGEKVNMSCKSSQSLLYSRNQKNYLAWNQQKPGQSPKLLIYWASARESGVPDRFTGSGSGTDFTLTISSVKAEDLAAYYCQQYHSYPYTFGGGTKLELK
notes: as for B1
B11: the “FACS MFI” value was found to be 27600 in test [1], 49600 in test [2] and 5400 in test [3].

B12: 13-A8-C4-G1 (antibody, V domains shown)
VH: QVQLQQPGAELVKPGASMKLSCKASGYIFTSNWMHWVKQRPGQGLEWIGMIHPNSGTTSYNEKFKNKAKLTVDKSSSTAYVQLSSLTSEDSAVYYCAGPTTTRRFYPMDYWGQGTSVTVSS
VL: QAVVTQESALTTSPGETVTLTCRSSTGAVTTSNYANWVQEKPDHLFTGLIGGTNNRAPGVPARFSGSLIGDKAALTITGAQTEDEAIYFCALWYSNHFIFGSGTKVTVL
notes: as for B1
With B12, the “FACS MFI” value is 6200 in test [1], 54100 in test [2] and 95800 in test [3].

B13: 6-F3-G2-G1 (antibody, V domains shown)
VH: QVQLQQPGAELVKPGASVKLSCKASDYTFTNYWMHWVKQRPGQGLEWIGMIHPNSGTTSYNEKFKNKATLTVDTSSATTYMHLSSLTSEDSAVYYCASHYGNSYSAMDYWGQGTSVTVSS
VL: QAVVTQESALTTSPGGTVILTCRSSTGAVTTSNYANWVQEKPDHLFTGLIGGTSNRAPGVPVRFSGSLIGDKAALTITGAQTEDDAMYFCALWYSTHYVFGGGTKVTVL
notes: as for B1
For the molecule B13, the “FACS MFI” value in test [1] turned out to be 6980; in test [2], 37400; in test [3], 114000.

B14: 15-C8-B5-G7 (antibody, V domains shown)
VH: QVQLQQPGAELVKPGASVKLSCKASDYTFTSHWMHWVKQRPGQGLEWIGMIHPNSGTTHYNENFKNKATLTVDNSSSTAYMQLSSLTSEDSAVYYCAWGSSNSYFYAMAYWGQGTSVTVSS
VL: QAVVTQESALTTSPGETVTLTCRSSTGAVTTSNYANWVQEKPAHLFTGLIGGTNNRAPGVPARFSGSLIGDKAALTITGAQTEDEAIYFCALWFSNHLVFGGGTKLTVL
notes: as for B1
For B14, the “FACS MFI” value is 5730 in test [1], 36600 in test [2] and 43000 in test [3].

B15: 9-E8-F9-C10 (antibody, V domains shown)
VH: EVQLQQSGAELVRPGTSVKISCKASGYAFSDYWLSWVKQRPGHGLEWIGDICPGSGNIYYNERFKDKVILTADRSSSTAYLQFSSLTSEDSVVYFCTRLITRVIDYWGQGTSVTVST
VL: ENVLTQSPAIMSASPGEKVTMTCSASSSVNYMHWYQQKSSTSPKLWIYDTSKLSSGVPGRFSGSGSGNSYSLTISSMEAEDVATYYCFQGSGYPLTFGAGTKLELK
notes: as for B1
Turning to B15, the entries for the “FACS MFI” value in test [1], in test [2] and in test [3] were 1950, 7610 and 5700, respectively.

These data come from patent publication US20240400689A1 (ANTENGENE BIOLOGICS, published 2024).
